Among the targets are TCR Vβ2 (human); TCR Vβ5 (human); TCR Vβ8 (human).
What all share (experiment): cell-based or functional assay

Take H-TSST1 (ligand): in the experiment with TCR Vβ2 (human), the CD3^+ Blasts Binding Anti-Vβ (%) is 33%; the CD3^+ Blasts Binding Anti-Vβ, fold difference versus unstimulated controls came out at 3.4 fold; the CD3^+ Lymphocytes Binding Anti-Vβ (%) worked out at 5.1%; the CD3^+ Lymphocytes Binding Anti-Vβ, fold difference versus unstimulated controls was 0.5 fold. Also, in the experiment with TCR Vβ5 (human), the CD3^+ Blasts Binding Anti-Vβ (%) amounted to 4.5%; the CD3^+ Blasts Binding Anti-Vβ, fold difference versus unstimulated controls was 2 fold; the CD3^+ Lymphocytes Binding Anti-Vβ (%) stood at 2%; the CD3^+ Lymphocytes Binding Anti-Vβ, fold difference versus unstimulated controls came to 0.9 fold. For the same substance, in the experiment with TCR Vβ8 (human), the CD3^+ Blasts Binding Anti-Vβ (%) amounted to 4.6%; the CD3^+ Blasts Binding Anti-Vβ, fold difference versus unstimulated controls came to 1.1 fold; the CD3^+ Lymphocytes Binding Anti-Vβ (%) came out at 4.1%; the CD3^+ Lymphocytes Binding Anti-Vβ, fold difference versus unstimulated controls is 1 fold.

These data come from patent US20030032582A1.
